The source of these data is patent US9539367B2, “Gallium inhibits biofilm formation” (priority 2003, dated 2017).

The assay has as its system P. aeruginosa biofilm. The assay is described as follows: Biofilm formation of GFP-labeled P. aeruginosa in continuous culture flow cells. The note with it: for effect on P. aeruginosa biofilm formation: Fe chelation, concentrations that did not alter growth (lactoferrin 20 μg ml). The class given is cell-based.

B1: lactoferrin: Fe-binding protein (protein, UniProt P02788 20-710, looked up)
Lactotransferrin: GRRRSVQWCAVSQPEATKCFQWQRNMRKVRGPPVSCIKRDSPIQCIQAIAENRADAVTLDGGFIYEAGLAPYKLRPVAAEVYGTERQPRTHYYAVAVVKKGGSFQLNELQGLKSCHTGLRRTAGWNVPIGTLRPFLNWTGPPEPIEAAVARFFSASCVPGADKGQFPNLCRLCAGTGENKCAFSSQEPYFSYSGAFKCLRDGAGDVAFIRESTVFEDLSDEAERDEYELLCPDNTRKPVDKFKDCHLARVPSHAVVARSVNGKEDAIWNLLRQAQEKFGKDKSPKFQLFGSPSGQKDLLFKDSAIGFSRVPPRIDSGLYLGSGYFTAIQNLRKSEEEVAARRARVVWCAVGEQELRKCNQWSGLSEGSVTCSSASTTEDCIALVLKGEADAMSLDGGYVYTAGKCGLVPVLAENYKSQQSSDPDPNCVDRPVEGYLAVAVVRRSDTSLTWNSVKGKKSCHTAVDRTAGWNIPMGLLFNQTGSCKFDEYFSQSCAPGSDPRSNLCALCIGDEQGENKCVPNSNERYYGYTGAFRCLAENAGDVAFVKDVTVLQNTDGNNNEAWAKDLKLADFALLCLDGKRKPVTEARSCHLAMAPNHAVVSRMDKVERLKQVLLHQQAKFGRNGSDCPDKFCLFQSETKNLLFNDNTECLARLHGKTTYEKYLGPQYVAGITNLKKCSTSPLLEACEFLRK
In the case of B1, the “effect on P. aeruginosa biofilm formation” value is “profoundly inhibited biofilm formation”. The “effect on established biofilm” value (once the biofilm was established) is reported as “unable to alter the biofilm”.

B2: conalbumin: Fe chelator (protein, UniProt P02789 20-705, looked up)
Ovotransferrin: APPKSVIRWCTISSPEEKKCNNLRDLTQQERISLTCVQKATYLDCIKAIANNEADAISLDGGQAFEAGLAPYKLKPIAAEVYEHTEGSTTSYYAVAVVKKGTEFTVNDLQGKTSCHTGLGRSAGWNIPIGTLLHRGAIEWEGIESGSVEQAVAKFFSASCVPGATIEQKLCRQCKGDPKTKCARNAPYSGYSGAFHCLKDGKGDVAFVKHTTVNENAPDQKDEYELLCLDGSRQPVDNYKTCNWARVAAHAVVARDDNKVEDIWSFLSKAQSDFGVDTKSDFHLFGPPGKKDPVLKDLLFKDSAIMLKRVPSLMDSQLYLGFEYYSAIQSMRKDQLTPSPRENRIQWCAVGKDEKSKCDRWSVVSNGDVECTVVDETKDCIIKIMKGEADAVALDGGLVYTAGVCGLVPVMAERYDDESQCSKTDERPASYFAVAVARKDSNVNWNNLKGKKSCHTAVGRTAGWVIPMGLIHNRTGTCNFDEYFSEGCAPGSPPNSRLCQLCQGSGGIPPEKCVASSHEKYFGYTGALRCLVEKGDVAFIQHSTVEENTGGKNKADWAKNLQMDDFELLCTDGRRANVMDYRECNLAEVPTHAVVVRPEKANKIRDLLERQEKRFGVNGSEKSKFMMFESQNKDLLFKDLTKCLFKVREGTTYKEFLGDKFYTVISSLKTCNPSDILQMCSFLEGK
On to B2, for which the “effect on P. aeruginosa biofilm formation” value was “duplicated”.
